Source: patent US8603949B2, “Libraries of optimized cytochrome P450 enzymes and the optimized P450 enzymes” (California Institute of Technology, priority 2003, dated 2013)

Experiments:
[1] = Thermostability (loss of Soret band at increasing temperatures); assay type: physicochemical; details: cell extracts heated 10 minutes
Experimental: Thermostability was assayed by monitoring the loss of the Soret band at increasing temperatures. […] However, thermostability may be important for retention of catalytic activity: the two chimeras that lacked peroxygenase activity were also the least thermostable.
Cell extracts were heated in a thermocycler for 10 minutes at various temperatures, followed by cooling to 4° C. Extracts were centrifuged for 5 minutes at 3500×g to remove any precipitates. Carbon monoxide reduced difference spectroscopy was used to quantitate the amount of P450. The reduction of the carbon monoxide peak was monitored over a range of temperatures.

[2] = Peroxidase activity with ABTS and H2O2; assay type: biochemical; details: for Peroxidase activity: 10 mM ABTS, 20 mM H2O2, pH 5.0, activities <0.2 not detectable (N.D.); for peroxidase activity relative to parents: ABTS
From the text: P450s can reduce peroxide to water (and a proton) using a mechanism similar to that of peroxidases, although the intrinsic rate for P450s is many orders of magnitude slower. (Mansuy, D., Comp Biochem Physiol C Pharmacol Toxicol Endocrinol 121, 5-14 (1998)). It has been proposed that the earliest P450 function may have been as a peroxidase. (Gotoh, O., Cytochrome P450, 2nd Edition, pp. 255-272 (1993)). To investigate how recombination affects P450 peroxidase activity, the colorimetric substrate 2,2′-azino-bis(3-ethylbenzothiazoline-6-sulfonate) (ABTS) was used to monitor this reaction (Childs et al., Biochem J 145,93-103 (1975)).
This example provides an example of how one can measure peroxidase activity. Initial rates of peroxidase activity were measured by monitoring the accumulation of the radical cation of ABTS at 414 nm (Childs et al., Biochem J., 145:93-103 (1975)). Enzyme (1 μM) was mixed with 10 mM ABTS in 200 mM phosphate buffer (pH 5.0) in a cuvette at room temperature. Samples were zeroed and reactions were initiated with the addition of H2O2 to a concentration of 20 mM. The absorbance at 414 nm was monitored for 5 minutes. Rates were determined from the steepest portion of the time course. An extinction coefficient of […] for ABTS was used.

[3] = Peroxygenase substrate activity profile; assay type: biochemical; details: 20 mM H2O2
Experimental: The chimeras were assayed for hydroxylation of p-nitrophenoxydodecanoic acid (12-pNCA), a fatty acid analog that is hydroxylated by CYP102A1 and CYP102A2 to yield p-nitrophenolate (Schwaneberg et al., Anal Biochem 269,359-366 (1999)). […] When hydroxylation rates for the parent CYP102 enzymes were monitored using the maximum soluble concentrations of these substrates, activity could only be detected on 2-phenoxy-ethanol.
Chimeras were assayed for peroxygenase activity on 12-pNCA, 2-phenoxy -ethanol and allyloxy-benzene. […] Rates are reported in nmol product/nmol P450/minute. […] Those with no activity include 65-256 and 277-365. Those with new activity include 165-256, 191-335, and 43-135.
This Example provides one method by which peroxygenase activity of a P450 enzyme may be characterized. First order rates for p-nitrophenolate accumulation were determined using 1 μM enzyme, 20 mM H2O2, 250 μM 12-pNCA and 0.5% dimethyl sulfoxide (DMSO) in 100 mM Tris-HCl (pH 8.2) at room temperature. Enzyme, substrate, buffer and DMSO were combined in a cuvette and zeroed at 410 nm. Reaction mixtures were incubated for 4 minutes and initiated by the addition of H2O2 to a final concentration of 20 mM. Initial rates were determined by monitoring the accumulation of p-nitrophenolate at 410 nm, and data from the first six seconds were used to determine initial rates. […] The extinction coefficient of p-nitrophenolate is 13,200 M^−1cm^−1 (Schwaneberg et al., Anal Biochem 269:359-366 (1999)).
Rates on 2-phenoxy-ethanol and allyloxy-benzene were determined using 2 μM enzyme, 20 mM H2O2, 1% DMSO, and 1% acetone in 100 mM N-[2-hydroxyethyl]piperazine-N′-[3-propanesulfonic acid] (Epps) (pH 8.2) at room temperature. Substrate concentrations for 2-phenoxy-ethanol (100 mM) and allyloxy benzene (50 mM) maintained saturation. Reactions were initiated by the addition of H2O2 and quenched at appropriate times using an equal volume of a solution containing 4M urea and 100 mM NaOH. 120 μl of 0.6% 4-AAP was added, followed by mixing and addition of 120 μl of 0.6% potassium persulfate. Color was allowed to develop for 20 minutes before absorbance was read at 500 nm. Rates were determined from the linear region of the time course. The major products were determined by GC/MS to be the hemiacetal, which decomposes to phenol. The extinction coefficient for the 4-AAP/phenol complex was determined to be 4,800 M^−1cm^−1. The results can be seen in FIG. 4.

substrate activity profile relative to parents [3] | Molecule | Tm [1] [°C] | Peroxidase activity [2] | peroxidase activity relative to parents [2]
– | CYP102A2: parent P450 heme domain from Bacillus subtilis, with the F88A mutation (protein, listed as Bacillus subtilis) KETSPIPQPKTFGPLGNLPLIDKDKPTLSLIKLAEEQGPIFQIHTPAGTTIVVSGHELVKEVCDEERFDKSIEGALEKVRAFSGDGLATSWTHEPNWRKAHNILMPTFSQRAMKDYHEKMVDIAVQLIQKWARLNPNEAVDVPGDMTRLTLDTIGLCGFNYRFNSYYRETPHPFINSMVRALDEAMHQMQRLDVQDKLMVRTKRQFRYDIQTMFSLVDSIIAERRANGDQDEKDLLARMLNVEDPETGEKLDDENIRFQIITFLIAGHETTSGLLSFATYFLLKHPDKLKKAYEEVDRVLTDAAPTYKQVLELTYIRMILNESLRLWPTAPAFSLYPKEDTVIGGKFPITTNDRISVLIPQLHRDRDAWGKDAEEFRPERFEHQDQVPHHAYKPFGNGQRACIGMQFALHEATLVLGMILKYFTLIDHENYELDIKQTLTLKPGDFHISVQSRHQEAIHADVQAAE | 44 | 0.4 nmol product/nmol P450/min | low, but detectable peroxidase activity
altered activity | Chimera 70-299: CYP102A1 heme domain with residues 70-299 from CYP102A2 (protein, Chimeric Cytochrome P450 heme group sequence from Bacillus megaterium and Bacillus subtilis, CYP102A1 heme domain with residues 70-299 from CYP102A2) TIKEMPQPKTFGELKNLPLLNTDKPVQALMKIADELGEIFKFEAPGRVTRYLSSQRLIKEACDESRFDKSIEGALEKVRAFSGDGLATSWTHEPNWRKAHNILMPTFSQRAMKDYHEKMVDIAVQLIQKWARLNPNEAVDVPGDMTRLTLDTIGLCGFNYRFNSYYRETPHPFINSMVRALDEAMHQMQRLDVQDKLMVRTKRQFRYDIQTMFSLVDSIIAERRANGDQDEKDLLARMLNVEDPETGEKLDDENIRFQIITFLIAGHETTSGLLSFATYFLLKHPDKLKKAYEEVDRVLTDPVPSYKQVKQLKYVGMVLNEALRLWPTAPAFSLYAKEDTVLGGEYPLEKGDELMVLIPQLHRDKTIWGDDVEEFRPERFENPSAIPQHAFKPFGNGQRACIGQQFALHEATLVLGMMLKHFDFEDHTNYELDIKETLTLKPEGFVVKAKSKKIPLGGIPSPST | 42 | 0.8 nmol product/nmol P450/min | –
altered activity | Chimera 169-197M: mirror chimera of 169-197, sequences from opposite parents at every position (protein, Chimeric Cytochrome P450 heme group sequence from Bacillus megaterium and Bacillus subtilis) KETSPIPQPKTFGPLGNLPLIDKDKPTLSLIKLAEEQGPIFQIHTPAGTTIVVSGHELVKEVCDEERFDKSIEGALEKVRAFSGDGLATSWTHEPNWRKAHNILMPTFSQRAMKDYHEKMVDIAVQLIQKWARLNPNEAVDVPGDMTRLTLDTIGLCGFNYRFNSYYREQPHPFITSMVRALDEAMNKLQRANPDDPAMVRTKRQFRYDIQTMFSLVDSIIAERRANGDQDEKDLLARMLNVEDPETGEKLDDENIRFQIITFLIAGHETTSGLLSFATYFLLKHPDKLKKAYEEVDRVLTDAAPTYKQVLELTYIRMILNESLRLWPTAPAFSLYPKEDTVIGGKFPITTNDRISVLIPQLHRDRDAWGKDAEEFRPERFEHQDQVPHHAYKPFGNGQRACIGMQFALHEATLVLGMILKYFTLIDHENYELDIKQTLTLKPGDFHISVQSRHQEAIHADVQAAE | 43 | 0.3 nmol product/nmol P450/min | did not show similarly enhanced levels
parent-like profiles | Chimera 165-256M: mirror chimera of 165-256, sequences from opposite parents at every position (protein, Chimeric Cytochrome P450 heme group sequence from Bacillus megaterium and Bacillus subtilis) KETSPIPQPKTFGPLGNLPLIDKDKPTLSLIKLAEEQGPIFQIHTPAGTTIVVSGHELVKEVCDEERFDKSIEGALEKVRAFSGDGLATSWTHEPNWRKAHNILMPTFSQRAMKDYHEKMVDIAVQLIQKWARLNPNEAVDVPGDMTRLTLDTIGLCGFNYRFNSFYRDQPHPFITSMVRALDEAMNKLQRANPDDPAYDENKRQFQEDIKVMNDLVDKIIADRKASGEQSDDLLTHMLNGKDPETGEPLDDENIRYQIITFLIAGHETTSGLLSFATYFLLKHPDKLKKAYEEVDRVLTDAAPTYKQVLELTYIRMILNESLRLWPTAPAFSLYPKEDTVIGGKFPITTNDRISVLIPQLHRDRDAWGKDAEEFRPERFEHQDQVPHHAYKPFGNGQRACIGMQFALHEATLVLGMILKYFTLIDHENYELDIKQTLTLKPGDFHISVQSRHQEAIHADVQAAE | 50 | 3.5 nmol product/nmol P450/min | did not show similarly enhanced levels
parent-like profiles | Chimera 364-403: CYP102A1 heme domain with residues 364-403 from CYP102A2 (protein, Chimeric Cytochrome P450 heme group sequence from Bacillus megaterium and Bacillus subtilis, CYP102A1 heme domain with residues 364-403 from CYP102A2) TIKEMPQPKTFGELKNLPLLNTDKPVQALMKIADELGEIFKFEAPGRVTRYLSSQRLIKEACDESRFDKNLSQALKFVRDFAGDGLATSWTHEKNWKKAHNILLPSFSQQAMKGYHAMMVDIAVQLVQKWERLNADEHIEVPEDMTRLTLDTIGLCGFNYRFNSFYRDQPHPFITSMVRALDEAMNKLQRANPDDPAYDENKRQFQEDIKVMNDLVDKIIADRKASGEQSDDLLTHMLNGKDPETGEPLDDENIRYQIITFLIAGHETTSGLLSFALYFLVKNPHVLQKAAEEAARVLVDPVPSYKQVKQLKYVGMVLNEALRLWPTAPAFSLYAKEDTVLGGEYPLEKGDELMVLIPQLHRDRDAWGKDAEEFRPERFEHQDQVPHHAYKPFGNGQRACIGMQFALHEATLVLGMMLKHFDFEDHTNYELDIKETLTLKPEGFVVKAKSKKIPLGGIPSPST | 51 | 1 nmol product/nmol P450/min | –
parent-like profiles | Chimera 285-341: CYP102A1 heme domain with residues 285-341 from CYP102A2 (protein, Chimeric Cytochrome P450 heme group sequence from Bacillus megaterium and Bacillus subtilis, CYP102A1 heme domain with residues 285-341 from CYP102A2) TIKEMPQPKTFGELKNLPLLNTDKPVQALMKIADELGEIFKFEAPGRVTRYLSSQRLIKEACDESRFDKNLSQALKFVRDFAGDGLATSWTHEKNWKKAHNILLPSFSQQAMKGYHAMMVDIAVQLVQKWERLNADEHIEVPEDMTRLTLDTIGLCGFNYRFNSFYRDQPHPFITSMVRALDEAMNKLQRANPDDPAYDENKRQFQEDIKVMNDLVDKIIADRKASGEQSDDLLTHMLNGKDPETGEPLDDENIRYQIITFLIAGHETTSGLLSFALYFLVKNPDKLKKAYEEVDRVLTDAAPTYKQVLELTYIRMILNESLRLWPTAPAFSLYPKEDTVIGGEYPLEKGDELMVLIPQLHRDKTIWGDDVEEFRPERFENPSAIPQHAFKPFGNGQRACIGQQFALHEATLVLGMMLKHFDFEDHTNYELDIKETLTLKPEGFVVKAKSKKIPLGGIPSPST | 53 | 2.1 nmol product/nmol P450/min | –
